Measurements as given in EP3515493A1 (dated 2019).

B1: Lym-1 (antibody, V domains shown)
VH: QLKESGPGLVAPSQSLSITCTISGFSLTSYGVHWVRQPPGKGLEWLVVIWSDGSTTYNSALKSRLSISKDNSKSQVFLKMNSLQTDDTAIYYCASHYGSTLAFASWGHGTLVTVSA
VL: DIQMTQSPASLSASVGETVTIICRASVNIYSYLAWYQQKQGKSPQLLVYNAKILAEGVPSRFSGSGSGTQFSLKINSLQPEDFGSYYCQHHYGTFTFGSGTKLEIK
B2: Lym-2 (antibody, V domains shown)
VH: EVQLEESGGGLVQPGGSMKLSCVASGFTFSNYWMNWVRQSPEKGLEWVAEIRFKSHNYATHFAESVKGRFTISRDDSKSSVYLQMNNLRAEDTGIYYCTRRIGNSDYDWWYFDVWGAGTSVTVSS
VL: DIVMTQSHKFMSTSVGDRVSVTCKASQNVGNNVAWYQQKPGQSPKVLIYSASYRYSGVPDRFTGSGSGTDFTLTISNVQSEDLAEYFCQQYNTYPFTFGSGTKLEIK

Columns and labels:
HLA-DR, human [1] = target: HLA-DR, human (human); assay: Scatchard plot analysis, avidity constant on tonsil lymphocytes
HLA-DR, human [2] = target: HLA-DR, human (human); assay: Scatchard plot analysis, avidity constant on tumor cell line (Raji cells)
HLA-DR, human [3] = target: HLA-DR, human (human); assay: Scatchard analysis, normal B cells (Table 11: tonsil lymphocytes) compared with Raji tumor cells
HLA-DR, human [4] = target: HLA-DR, human (human); assay: Scatchard plot analysis, avidity constant on tumor cell line (ARH-77 myeloma cells)
HLA-DR, human [5] = target: HLA-DR, human (human); assay: Scatchard analysis, normal B cells (Table 11: tonsil lymphocytes) compared with ARH-77 tumor cells

| Binder | Ka (HLA-DR, human [1]) [M⁻¹] | Ka (HLA-DR, human [2]) [M⁻¹] | fold decrease in binding affinity (normal B cells against tumor cells) (HLA-DR, human [3]) [fold] | Ka (HLA-DR, human [4]) [M⁻¹] | fold decrease in binding affinity (normal B cells against tumor cells) (HLA-DR, human [5]) [fold] |
| --- | --- | --- | --- | --- | --- |
| B1 | 8.8e+07 | 4.02e+08 | 4 |  |  |
| B2 | 1.23e+08 |  |  | 2.33e+08 | 2 |
